Measurements taken from publication PMC8169993.

Tests used:
[1] = target: T1, RPA (heterotrimer RPA1/RPA2/RPA3) (Homo sapiens, UniProt P27694;P15927;P35244 1-616;1-270;1-121); assay: gel filtration
[2] = target: T1, RPA (heterotrimer RPA1/RPA2/RPA3); assay: smFRET
[3] = target: T1, RPA (heterotrimer RPA1/RPA2/RPA3); assay: smFRET; remark: listed apart in the source
[4] = target: T1, RPA (heterotrimer RPA1/RPA2/RPA3); assay: smFRET; remark: listed apart in the source
[5] = target: T1, RPA (heterotrimer RPA1/RPA2/RPA3); assay: fluorescence polarization

T1 sequence (P27694 whole entry, chain 1 of 3): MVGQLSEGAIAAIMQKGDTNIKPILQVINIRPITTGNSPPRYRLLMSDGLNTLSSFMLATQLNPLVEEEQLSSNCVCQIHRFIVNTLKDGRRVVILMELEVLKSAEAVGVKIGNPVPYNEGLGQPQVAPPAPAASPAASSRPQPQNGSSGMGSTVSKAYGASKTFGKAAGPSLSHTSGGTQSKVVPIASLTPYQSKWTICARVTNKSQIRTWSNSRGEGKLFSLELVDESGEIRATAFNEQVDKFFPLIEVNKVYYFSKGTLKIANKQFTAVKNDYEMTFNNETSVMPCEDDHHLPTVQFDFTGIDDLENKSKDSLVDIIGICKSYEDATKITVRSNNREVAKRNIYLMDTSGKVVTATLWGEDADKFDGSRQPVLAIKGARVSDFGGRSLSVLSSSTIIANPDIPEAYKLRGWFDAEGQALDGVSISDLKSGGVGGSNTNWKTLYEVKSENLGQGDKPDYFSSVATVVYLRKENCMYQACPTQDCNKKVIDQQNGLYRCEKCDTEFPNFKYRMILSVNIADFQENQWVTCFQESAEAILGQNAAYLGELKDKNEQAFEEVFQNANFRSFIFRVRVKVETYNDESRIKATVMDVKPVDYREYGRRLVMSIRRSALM
T1 sequence (P15927 whole entry, chain 2 of 3): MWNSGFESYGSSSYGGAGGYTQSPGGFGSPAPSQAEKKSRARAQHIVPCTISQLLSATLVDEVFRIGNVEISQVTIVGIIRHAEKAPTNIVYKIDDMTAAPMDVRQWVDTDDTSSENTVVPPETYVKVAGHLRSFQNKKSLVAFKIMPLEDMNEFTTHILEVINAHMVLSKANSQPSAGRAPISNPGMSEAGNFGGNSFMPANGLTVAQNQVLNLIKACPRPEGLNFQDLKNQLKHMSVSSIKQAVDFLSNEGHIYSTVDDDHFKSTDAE
T1 sequence (P35244 whole entry, chain 3 of 3): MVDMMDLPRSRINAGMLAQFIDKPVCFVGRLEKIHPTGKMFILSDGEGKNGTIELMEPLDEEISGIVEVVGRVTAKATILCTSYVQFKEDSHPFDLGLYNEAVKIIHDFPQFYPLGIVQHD

B1: 4G4 (mixed)
DNA 1: GCGTGGCACCGGTAATAGGAAATAGGAGATTGGGGTGTGGGGACAGGGGTGTGGGGTT
DNA 2: TCCTATTTCCTATTACCGGTGCCACGC
binding result [1]: binds

B2: 3G4L5 (mixed)
DNA 1: GCGTGGCACCGGTAATAGGAAATAGGAGATTGGGTTTTTGGGTTTTTGGGTTTTTGGGTT
DNA 2: TCCTATTTCCTATTACCGGTGCCACGC
binding result [2]: binds

B3: 3G4L121* (mixed)
DNA 1: GGGTGGGTAGGGTGGGATGTATGACAAGGAAGG
DNA 2: CCTTCCTTGTCATAC
binding result [3]: binds

B4: 3G4L4 (mixed)
DNA 1: GCGTGGCACCGGTAATAGGAAATAGGAGATTGGGTTTTGGGTTTTGGGTTTTGGGTT
DNA 2: TCCTATTTCCTATTACCGGTGCCACGC
binding result [2]: binds

B5: 27bp4nt (mixed)
DNA 1: GCGTGGCACCGGTAATAGGAAATAGGAGATT
DNA 2: TCCTATTTCCTATTACCGGTGCCACGC
binding result [4]: binds

B6: 3G4L1 (FP substrate) (mixed)
DNA 1: GCGTGGCACCGGTAATAGGAAATAGGAGATTGGGTGGGTGGGTGGGTT
DNA 2: TCCTATTTCCTATTACCGGTGCCACGC
Kd [5]: 8.6 nM

B7: 3G4L3 (FP substrate) (mixed)
DNA 1: GCGTGGCACCGGTAATAGGAAATAGGAGATTGGGTTAGGGTTAGGGTTAGGGTT
DNA 2: TCCTATTTCCTATTACCGGTGCCACGC
Kd [5]: 6.3 nM
